Data as given in patent US20230151111A1 (AKESO BIOPHARMA, published 2023).

T1: human NT5E-Biotin (human, UniProt P21589 27-552, limits assumed, biotin label, site not stated)
T1 construct: Captured on streptavidin-coated plates; also called human NTSE-Biotin
T1 sequence (looked up): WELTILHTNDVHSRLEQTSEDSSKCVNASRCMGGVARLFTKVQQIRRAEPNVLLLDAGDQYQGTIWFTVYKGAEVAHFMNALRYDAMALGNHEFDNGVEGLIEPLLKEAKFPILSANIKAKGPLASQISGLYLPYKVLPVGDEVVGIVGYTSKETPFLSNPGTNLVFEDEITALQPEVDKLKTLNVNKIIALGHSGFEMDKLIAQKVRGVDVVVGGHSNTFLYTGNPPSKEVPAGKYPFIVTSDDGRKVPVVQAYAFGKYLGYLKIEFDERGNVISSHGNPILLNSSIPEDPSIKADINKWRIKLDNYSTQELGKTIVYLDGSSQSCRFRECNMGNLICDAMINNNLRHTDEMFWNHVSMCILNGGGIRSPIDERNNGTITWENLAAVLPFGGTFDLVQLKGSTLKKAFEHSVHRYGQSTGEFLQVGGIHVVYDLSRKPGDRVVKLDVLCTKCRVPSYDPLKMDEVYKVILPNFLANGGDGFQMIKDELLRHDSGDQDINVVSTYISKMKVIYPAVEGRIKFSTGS


How the values were obtained:
PD-1-mFc [1] = molecular target: T2, PD-1-mFc (human, UniProt Q15116 25-170, limits assumed); test: BLI (Fortebio), antibody on AHC sensor, PD-1-mFc 0.6-50 nM, 37 C
T2 construct: also called human PD-1-mFc
Method: The sample dilution buffer was PBST, 0.1% BSA, pH 7.4. The antibody was immobilized on an AHC sensor at a concentration of 5 μg/mL with an immobilization height of about 0.4 nm. The sensor was equilibrated in a buffer for 60 s, and the binding of the immobilized antibody on the sensor to the antigen PD-1-mFc at concentrations of 0.6-50 nM (three-fold dilution) was determined in 120 s. The protein was dissociated in the buffer for 180 s. The detection temperature was 37° C., the detection frequency was 0.3 Hz, and the sample plate shaking rate was 1000 rpm. The data were analyzed by 1:1 model fitting to obtain affinity constants.

[2] = molecular target: T3, PD-1 on 293T-PD1 cell surface (human, UniProt Q15116 25-288); test: flow cytometry, 293T-PD1 cells; antibody 0.41 nM
T3 construct: whole, on cells
Method: (§1) 500 μL of PBSA was added, and the mixture was centrifuged at 5600 rpm for 5 min to remove the supernatant. […] The system was mixed gently and uniformly, and then was incubated on ice for 1 h. Then 500 μL of PBSA was added, and the mixture was centrifuged at 5600 rpm for 5 min to remove the supernatant. […] 500 μL of PBSA was added, and the mixture was centrifuged at 5600 rpm for 5 min to remove the supernatant. At last, 200 μL of PBSA was added to resuspend cell precipitates, and the mixture was transferred to a flow tube for FACSCalibur detection.

[3] = molecular target: T3, PD-1 on 293T-PD1 cell surface; test: flow cytometry, 293T-PD1 cells; antibody 100.00 nM
Method: as §1

[4] = molecular target: T3, PD-1 on 293T-PD1 cell surface; test: flow cytometry, 293T-PD1 cells; antibody 1.23 nM
Method: as §1

PD-1-mFc [5] = molecular target: T2, PD-1-mFc; test: ELISA, PD-1-mFc coated
Method: A microplate was coated with PD-1-mFc at 0.5 μg/mL and incubated at 4° C. overnight. Then the microplate coated with antigens was washed once with PBST, and then blocked with a PBS solution containing 1% BSA as blocking solution at 37° C. for 2 h. After blocking, the microplate was washed 3 times with PBST. The microplate containing the test antibodies was incubated at 37° C. for 30 min, and then washed 3 times with PBST. […] After incubation, the plate was washed 4 times with PBST, TMB (Neogen, 308177) was added in the dark for chromogenesis for 5 min, and then a stop solution was added to terminate chromogenic reaction. The microplate was put into a microplate reader immediately, and the OD value of each well in the microplate was read at 450 nm. The data were analyzed and processed by SoftMax Pro 6.2.1,

[6] = molecular target: T3, PD-1 on 293T-PD1 cell surface; test: flow cytometry, 293T-PD1 cells; antibody 33.33 nM
Method: as §1

[7] = molecular target: T3, PD-1 on 293T-PD1 cell surface; test: flow cytometry, 293T-PD1 cells
Method: as §1

[8] = molecular target: T3, PD-1 on 293T-PD1 cell surface; test: flow cytometry, 293T-PD1 cells; antibody 0.05 nM
Method: as §1

[9] = molecular target: T3, PD-1 on 293T-PD1 cell surface; test: flow cytometry, 293T-PD1 cells; antibody 0.14 nM
Method: as §1

[10] = molecular target: T3, PD-1 on 293T-PD1 cell surface; test: flow cytometry, 293T-PD1 cells; antibody 3.70 nM
Method: as §1

human PD-1-mFc-biotin [11] = molecular target: T4, human PD-1-mFc-biotin (human, UniProt Q15116 25-170, limits assumed, biotin label, site not stated); test: competitive ELISA, blocking of PD-1-mFc-biotin binding to coated PD-L1-mFc
Method: (§2) After incubation, the microplate was blocked with a PBS solution containing 1% BSA at 37° C. for 2 h. After blocking, the plate was washed three times and dried. The antibody was serially diluted to 7 concentrations in a gradient ratio of 1:3 on a dilution plate with 10 μg/mL as the starting concentration, and a blank control was set. […] Then the mixture after reaction was added to the coated microplate, and the microplate was incubated for at 37° C. for 30 min. After incubation, the plate was washed three times with PBST and dried. SA-HRP (KPL, 14-30-00) working solution was added, and the plate was incubated at 37° C. for 30 min. After incubation, the plate was washed four times and patted dry. Then TMB (Neogen, 308177) was added in the dark for chromogenesis for 5 min, and a stop solution was added to terminate chromogenic reaction. Then the microplate was put into a microplate reader immediately, and the OD value of each well in the microplate was read at 450 nm. The data were analyzed and processed by SoftMax Pro 6.2.1.

human NT5E-Biotin = molecular target: T1, human NT5E-Biotin; test: ELISA, NT5E-biotin on streptavidin
Method: A microplate was coated with streptavidin at 2 μg/mL and then incubated at 4° C. overnight. After incubation, the microplate coated with streptavidin was washed once with PBST, and blocked with a PBS solution containing 1% BSA as a microplate blocking solution at 37° C. for 2 h. After blocking, the microplate was washed 3 times with PBST. Then, 0.5 μg/mL antigen human NTSE-Biotin was added and incubated at 37° C. for 30 min. Then, the plate was washed 3 times with PBST. The antibodies serially diluted with PBST solution (the dilution gradients for the antibody are shown in Table 3) were added to wells of the microplate. The microplate containing the test antibodies was incubated at 37° C. for 30 min, and then washed 3 times with PBST. […] After incubation, the plate was washed 4 times with PBST, TMB (Neogen, 308177) was added in the dark for chromogenesis for 5 min, and then a stop solution was added to terminate chromogenic reaction. The microplate was put into a microplate reader immediately, and the OD value of each well in the microplate was read at 450 nm. The data were analyzed and processed by SoftMax Pro 6.2.1.

human PD-1-mFc-biotin [12] = molecular target: T4, human PD-1-mFc-biotin; test: competitive ELISA, competitor coated PD-L1-mFc; antibody 5 ug/mL diluted 1:3
Method: as §2

[13] = molecular target: T3, PD-1 on 293T-PD1 cell surface; test: flow cytometry, 293T-PD1 cells; antibody 11.11 nM
Method: as §1

T3 sequence (Q15116 25-288): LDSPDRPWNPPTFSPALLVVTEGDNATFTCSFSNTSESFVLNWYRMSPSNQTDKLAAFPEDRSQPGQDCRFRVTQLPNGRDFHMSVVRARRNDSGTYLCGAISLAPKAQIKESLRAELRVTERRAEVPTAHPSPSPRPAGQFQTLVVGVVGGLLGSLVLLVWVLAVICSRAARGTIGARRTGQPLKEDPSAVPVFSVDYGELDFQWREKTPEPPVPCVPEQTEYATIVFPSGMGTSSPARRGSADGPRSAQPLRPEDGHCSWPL
T2 sequence (Q15116 other isoform, or with tags, fused parts or gaps limits assumed): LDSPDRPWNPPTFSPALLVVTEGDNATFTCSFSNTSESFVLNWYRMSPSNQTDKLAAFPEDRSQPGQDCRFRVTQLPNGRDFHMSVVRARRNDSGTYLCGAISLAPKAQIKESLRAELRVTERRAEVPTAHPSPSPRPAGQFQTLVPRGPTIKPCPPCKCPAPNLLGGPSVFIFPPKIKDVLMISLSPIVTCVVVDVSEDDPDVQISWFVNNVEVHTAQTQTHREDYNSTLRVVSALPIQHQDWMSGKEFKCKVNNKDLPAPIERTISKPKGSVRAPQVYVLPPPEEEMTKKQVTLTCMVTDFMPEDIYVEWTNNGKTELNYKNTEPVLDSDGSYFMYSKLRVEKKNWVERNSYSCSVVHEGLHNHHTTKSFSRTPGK
T4 sequence (Q15116 other isoform, or with tags, fused parts or gaps limits assumed): as above

Row | Kd (PD-1-mFc [1]) [nM] | FACS signal [2] | FACS signal [3] | FACS signal [4] | EC50 (PD-1-mFc [5]) [nM] | FACS signal [6] | EC50 [7] [nM] | FACS signal [8] | FACS signal [9] | FACS signal [10] | EC50 (human PD-1-mFc-biotin [11]) [nM] | EC50 (human NT5E-Biotin) [nM] | OD450 (human PD-1-mFc-biotin [12]) [OD] | FACS signal [13] | Binder
1 | 0.164 | 129 | 1500 | 438 | 0.033 | 1170 | 2.11 | 35.7 | 57.7 | 975 | – | – | – | – | 14C12H1L1 (antibody, human IgG1, kappa, Humanized anti-PD-1 IgG1/kappa) heavy: not shown light: DIQMTQSPSSMSASVGDRVTFTCRASQDINTYLSWFQQKPGKSPKTLIYRANRLVSGVPSRFSGSGSGQDYTLTISSLQPEDMATYYCLQYDEFPLTFGAGTKLELKRTVAAPSVFIFPPSDEQLKSGTASVVCLLNNFYPREAKVQWKVDNALQSGNSQESVTEQDSKDSTYSLSSTLTLSKADYEKHKVYACEVTHQGLSSPVTKSFNRGEC
2 | – | 108 | 301 | 218 | 0.078 | 405 | 1.07 | 23.4 | 43 | 404 | 1.33 | 0.23 | 0.051 | 426 | P1D7V02R (bispecific antibody, human IgG1, kappa, Morrison form IgG-scFv) heavy: not shown light: DIQMTQSPSSMSASVGDRVTFTCRASQDINTYLSWFQQKPGKSPKTLIYRANRLVSGVPSRFSGSGSGQDYTLTISSLQPEDMATYYCLQYDEFPLTFGAGTKLELKRTVAAPSVFIFPPSDEQLKSGTASVVCLLNNFYPREAKVQWKVDNALQSGNSQESVTEQDSKDSTYSLSSTLTLSKADYEKHKVYACEVTHQGLSSPVTKSFNRGEC
